The source of these data is patent US20240368299A1 (JIANGSU KANION PHARMACEUTICAL, published 2024).

Experiment [1] addresses recombinant human CD73 protein with C-terminal 6xHis tag (human) (UniProt P21589). Description: cell-based or functional assay.
Another experiment has as its target T1, CD73 on A549 cells (UniProt P21589 27-549, limits assumed).
T1 sequence (looked up): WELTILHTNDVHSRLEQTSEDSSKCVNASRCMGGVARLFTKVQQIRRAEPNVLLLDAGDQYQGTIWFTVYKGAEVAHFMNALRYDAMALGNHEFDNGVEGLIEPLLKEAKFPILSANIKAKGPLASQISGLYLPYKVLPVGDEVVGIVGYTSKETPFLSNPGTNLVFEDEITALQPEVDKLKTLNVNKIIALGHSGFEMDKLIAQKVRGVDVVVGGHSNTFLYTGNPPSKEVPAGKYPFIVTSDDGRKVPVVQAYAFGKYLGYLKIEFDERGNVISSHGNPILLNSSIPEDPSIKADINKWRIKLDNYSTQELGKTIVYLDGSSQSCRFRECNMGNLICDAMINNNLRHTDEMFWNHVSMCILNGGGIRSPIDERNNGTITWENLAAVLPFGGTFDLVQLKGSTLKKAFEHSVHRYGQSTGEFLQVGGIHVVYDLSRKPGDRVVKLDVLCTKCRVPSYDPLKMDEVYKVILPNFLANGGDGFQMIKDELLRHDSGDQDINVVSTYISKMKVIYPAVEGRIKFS
Description: cell-based or functional assay.

For experiment [2], the target named is recombinant human CD73 protein with C-terminal 6xHis tag (human) (UniProt P21589). Description: SPR, Biacore T200, antibody captured on CM5 chip, human CD73 injected, 25 C, 1:1 fit. (SPR reads the build-up and loss of mass on a sensor chip optically.)
In experiment [3] the target is T2, recombinant human CD73 protein with C-terminal 6xHis tag (human, UniProt P21589 27-547, limits assumed).
T2 sequence: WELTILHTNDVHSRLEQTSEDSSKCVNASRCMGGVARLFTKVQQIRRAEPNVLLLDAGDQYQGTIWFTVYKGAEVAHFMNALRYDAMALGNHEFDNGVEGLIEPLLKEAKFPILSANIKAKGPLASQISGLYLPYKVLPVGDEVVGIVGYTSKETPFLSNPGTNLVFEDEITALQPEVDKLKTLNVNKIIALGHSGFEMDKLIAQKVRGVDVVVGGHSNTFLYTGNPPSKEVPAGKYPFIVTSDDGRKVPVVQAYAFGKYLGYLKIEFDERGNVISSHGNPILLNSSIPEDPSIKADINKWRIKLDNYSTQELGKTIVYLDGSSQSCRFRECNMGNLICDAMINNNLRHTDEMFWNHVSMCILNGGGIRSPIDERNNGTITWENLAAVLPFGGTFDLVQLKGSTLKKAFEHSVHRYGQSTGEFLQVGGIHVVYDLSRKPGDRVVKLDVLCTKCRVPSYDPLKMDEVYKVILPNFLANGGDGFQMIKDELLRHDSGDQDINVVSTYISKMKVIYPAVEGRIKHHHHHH
Description: cell-based or functional assay.

The target in experiment [4] is T2, recombinant human CD73 protein with …. Description: SPR, Biacore T200, antibody captured by anti-mouse Fc IgG on CM5 chip, human CD73 injected, 25 C, 1:1 fit. On the procedure: Mouse Antibody Capture Kit, which is a commercialized reagent kit, was purchased from GE. Anti-mouse Fc IgG was fixated on a CM5 sensor chip by amine coupling in order to capture the antibody under test with the coupled anti-mouse Fc IgG. A series of human CD73 proteins having a predetermined concentration gradient were then injected, before samples were taken and tested with the pH 1.7 glycine-HCl regeneration testing chip that came with the reagent kit.
The binding constant (Ka), the dissociation rate constant (Kd), and the equilibrium constant (KD) were calculated with the Biacore T200 evaluation software by combining the model fitting data at a 1:1 ratio.

Turning to “MEDI-9447, anti-CD73 monoclonal antibody of MedImmune LLC”, the EC50 (µg/mL), Biochemical level, inhibition of CD73 enzyme activity in experiment [1] was 0.0896 µg/mL. Further, the EC50 (µg/mL), Cell level (A549), inhibition of CD73 enzyme activity in the experiment with CD73 on A549 cells turned out to be 0.032 µg/mL. In experiment [2], the Kd was 0.141 nM, the koff worked out at 3.91e-05 s⁻¹ and the kon was 278000 M⁻¹ s⁻¹.

B1: anti-human CD73 monoclonal antibody 7-C10-Ba-C2 (antibody, V domains shown)
VH: EVQLQQSGPELVKPGASMKISCKASGYSFTGYTMNWVKQSHGKNLEWIGFITPYNGDTIYNQKFKGKATVTVDKSSSTAYMDLLSLTSEDSAVYYCAREGYDGGYFDYWGQGTTLTVSS
VL: DIQMTQSPASLSASVGETVTITCRASENIYSYLAWYQQKQGKSPQLLVYNTQTLAEGVPSRFSGSGSGTQFSLKINSLQPEDFGSYYCQHHYGTPMYPFGGGTKLEIK
notes: Mouse (BABL/c) hybridoma antibody purified from ascitic fluid; also called antibody of the present invention
Regarding B1, the “EC50 (µg/mL), Biochemical level, inhibition of CD73 enzyme activity” value in experiment [3] is 0.106 µg/mL. Also, the “EC50 (µg/mL), Cell level (A549), inhibition of CD73 enzyme activity” value with CD73 on A549 cells turned out to be 0.0854 µg/mL. Further, in experiment [4], the Kd is 0.416 nM, the koff amounted to 3.21e-05 s⁻¹ and the kon turned out to be 77200 M⁻¹ s⁻¹.

The Kd is the equilibrium constant for the complex coming apart. By koff is commonly meant the rate constant with which the complex falls apart. One may read the kon as a measure of how fast the partners come together.
